Results reported in patent US5198419A, “Formulated medicines for enhancing the efficacy of beta-lactam antibiotics in prophylaxis and treatment against infectious disease due to pathogenic bacteria” (Immuno Japan Inc., priority 1989, dated 1993).
“Also recorded” adds a separate entry of the source.

Tests used:
[1] = test system: Klebsiella pneumoniae strain 3K25; test: Example 1: experimental infection in mice, cefpodoxime with or without native lactoferrin; format: in vivo, strain ICR; conditions: lactoferrin alone 0.4 mg/mouse p.o.; within 24 hours / one day after injection
Experimental: (§1) For ED50 values, a range of amounts of antibiotics is given in the examples (e.g., penicillin G: 0.4, 0.2, 0.1, 0.05 mg/mouse). To calculate the ED50, groups of mice in the monotherapy groups and groups of mice in the combined therapy groups received the indicated amount of antibiotic (e.g., one group received 0.4 mg/mouse of penicillin G, one group received 0.2 mg/mouse of penicillin G, one group received 0.1 mg/mouse of penicillin G, one group received 0.05 mg/mouse of penicillin G).
Sixty male mice, strain ICR, four weeks of age, body weight 19±1.0 g (mean±the standard deviation) were randomly divided into ten groups (n=6); the first group was assigned to the untreated control, the second group to the lactoferrin treated control group, the third through the sixth groups to the cephalosporin treated controls, and the seventh through the tenth groups to the combined treatment group of cephalosporin and lactoferrin. The mice were intraperitoneally injected with pneumobacillus, Klebsiella pneumoniae strain 3K25, 5×10^6 colony forming units (CFU) per mouse. The antibiotics used were orally active cephalosporin or cefpodoxime, and the bovine lactoferrin was the native one derived from cheese whey with 28.5% iron-saturation. […]

[2] = test system: Klebsiella pneumoniae strain 3K25; test: Example 5: experimentally infected fed and fasted mice, cefpodoxime with or without native lactoferrin; format: in vivo, strain ICR; conditions: cefpodoxime
Experimental: as §1
Male mice, strain ICR, five weeks old, weighing an average of 21.6 g, were randomly allocated into sixteen groups (n =6). During the next 24 hours, eight groups were allowed free access to diet and water, while the other eight groups were fasted overnight. On the next day, all the mice were injected with 1.4×10^6 CFU/mouse of Klebsiella pneumoniae strain 3K25. The minimal lethal dose of this bacterium is […], and thus the injected dose was 1,000 times greater than the minimal lethal dose. Immediately after the injection, the fed groups were orally given cefpodoxime (10, 5, 2.5, and 1.25 mg/mouse) simultaneously with or without native lactoferrin (0.2 mg/mouse). The fasted groups also were orally given cefpodoxime (10, 5, 2.5, and 1.25 mg/mouse) simultaneously with or without native lactoferrin (0.2 mg/mouse).

[3] = test system: Klebsiella pneumoniae 3K25; test: Example 7: experimental infection in mice, cefaclor with or without native lactoferrin; format: in vivo, strain ddY; conditions: simultaneous oral beta-lactam antibiotics with lactoferrin one hour after i.p. injection (as shown in Table 3)
[4] = Stability of bovine lactoferrin powder; format: physicochemical
Source text: The stability of bovine lactoferrin powder is also not affected by the degree of iron-saturation. […] Much care should be taken to avoid lactoferrin denaturation, especially denaturation by heat, in any formulating process. Due to its high stability, it is readily processed into mixed formulations with beta-lactam antibiotics for oral administration in any proportion, for example, freely mixed with lactose, cellulose, cellulose derivatives, magnesium stearate, and talc. One of the best ways to make lactoferrin liquid formulations, such as tincture and syrup, is adjustment of the pH to pH 3.1-4.0 by the addition of lactic acid to avoid bacterial contamination, then add paraaminobenzoic acid derivatives as preservatives against fungal contamination, and filtration through membrane filters (e.g., with pore size of 0.2 μm) into aseptic bottles.

[5] = test system: Klebsiella pneumoniae strain 3K25; test: Example 2: experimental infection in mice, cefpodoxime with or without apolactoferrin; format: in vivo, strain ICR; conditions: lactoferrin treated control (iron free apolactoferrin 0.4 mg p.o.)
Experimental: as §1
Sixty male mice, strain ICR, five weeks of age, weighing 19.3±1.1 g (mean body weight±the standard deviation) were randomly allocated into ten groups (n=6), and intraperitoneally injected with pneumobacilli, Klebsiella pneumoniae strain 3K25, 5×10^5 CFU/mouse. One hour after the injection, the first group was orally given 0.2 ml of physiological saline, the second group orally given iron free apolactoferrin (0.4 mg) in 0.2 ml of saline, the third through the sixth groups were orally given cefpodoxime (4, 2, 1, and 0.5 mg/mouse) in 0.2 ml saline, and the seventh through the tenth groups orally given the admixture of cefpodoxime (4, 2, 1, and 0.5 mg/mouse) and apolactoferrin (0.4 mg) in 0.2 ml of saline. Mice were fed ad libitum and observed for a week under the same conditions as described in Example 1.

pathogenic bacteria = test: Potentiation of beta-lactam antibiotics by lactoferrin at the whole animal level (general statements); format: in vivo
Experimental: Co-administration of lactoferrin with beta-lactam antibiotics greatly reduces the antibiotic requirement, that is, 1/2 to 1/6 of the amount of the antibiotics required in monotherapy in combination with lactoferrin (combined therapy) show the same curative effects as the antibiotic treatment alone (monotherapy). Oral administration of lactoferrin is an effective route, and the dose of lactoferrin required for this potentiation is 0.5-100 mg/kg and the optimum dose may be 1-10 mg/kg.
Apolactoferrin can be utilized as a raw material to prepare lactoferrin with desired degrees of iron-saturation by adding calculated amounts of ferric ions in the presence of carbonium anions. […] Therefore, lactoferrins with various degrees of iron-saturation can be successfully utilized in this invention. The efficacy potentiation of beta-lactam antibiotics by lactoferrin is independent of the degree of the iron-saturation of lactoferrin.
When lactoferrin is orally dosed to potentiate the efficacy of beta-lactam antibiotics, either the combined formulation with the antibiotics or the formulation containing lactoferrin alone as an active ingredient can be successfully used. When lactoferrin is dosed separately from the antibiotics, the timing of the dosing is very important. The potentiating effect is the strongest when lactoferrin is given from six hours before to one hour after the antibiotic administration.

Escherichia coli #11 = test: Example 6: experimental infection in mice, ampicillin with or without apolactoferrin; format: in vivo, strain ddY; conditions: simultaneous administration of lactoferrin with ampicillin
Experimental: as §1
Male mice, strain ddY, five weeks old, weighing an average of 21.5 g, were randomly allocated into groups (n=10), and they were intraperitoneally injected with Escherichia coli #11, 1.2×10^6 CFU/mouse. Immediately after the injection, the untreated control group was orally given 0.2 ml of distilled water, the second through the fifth groups were treated once orally by ampicillin (8, 4, 2 and 1 mg/mouse), and the sixth through the ninth groups with ampicillin (4, 2, 1 and 0.5 mg/mouse) plus apolactoferrin (1 mg/mouse) in 0.2 ml of distilled water. The mice were fed ad libitum and observed for one week under the same conditions as described in Example 1. […] It is apparent from the results that lactoferrin not only potentiates the efficacy of the cephalosporin class but also the penicillin class of antibiotics.

[6] = test system: Staphylococcus aureus 209P; test: Example 9: time-schedule of lactoferrin administration and efficacy of amoxicillin; format: in vivo, mice, ddY; conditions: lactoferrin dosed from 12 hours before to three hours after the injection
Experimental: as §1
The effect of time-schedule of lactoferrin administration on the potentiation of antibiotic efficacy was examined using an experimental model similar to Example 1. Male ddY mice (n=10), five weeks old, weighing an average of 21.9 g, were used in this experiment. On day 0 all the mice were intraperitoneally injected with 1.2×10^5 CFU/mouse of Staphylococcus aureus 209P. Amoxicillin ([…], 0.625 mg/mouse) was orally given one hour after the injection.

[7] = test system: Klebsiella pneumoniae strain 3K25; test: Example 8: dose-response relationship of potentiation of cefpodoxime efficacy by oral lactoferrin; format: in vivo, mice, ddY
Experimental: as §1
The dose-response relationship of the potentiation of the antibiotic efficacy by lactoferrin was determined using the same experimental infection system as described in Example 1. Male ddY mice, five weeks of age, weighing approximate 20.3 g, were randomly allocated into groups (n=10); the first group was assigned to the cefpodoxime control (5 mg/mouse). The mice were intraperitoneally injected with pneumobacillus, Klebsiella pneumoniae strain 3K25, 3×10^5 per mouse. One hour after the injection, the antibiotic cefpodoxime (1, 0.5, 0.25 and 0.125 mg/mouse) was orally given in 0.2 ml of physiological saline.

[8] = bovine lactoferrin, oral; cited from earlier work
[9] = test system: Klebsiella pneumoniae strain 3K25; test: Example 3: experimental infection in mice, cefaclor with or without hololactoferrin; format: in vivo, strain ICR; conditions: hololactoferrin alone 0.4 mg/mouse p.o.
Experimental: as §1
Sixty male mice, strain ICR, five weeks of age, weighing 21.3±1.5 g (mean±the standard deviation) were randomly allocated into ten groups (n=6), and intraperitoneally injected with Klebsiella pneumoniae strain 3K25, 1×10^6 CFU/mouse. One hour after the injection, the first group was orally given 0.2 ml of physiological saline, the second group orally given hololactoferrin (100% ferric ion saturated lactoferrin, 0.4 mg/mouse), the third through the sixth groups orally given cefaclor (2.0, 1.0, 0.5 and 0.25 mg/mouse each) in 0.2 ml of saline, and the seventh through the tenth groups orally given cefaclor (2.0, 1.0, 0.5 and 0.25 mg/mouse each) and hololactoferrin (100% iron saturated lactoferrin, 0.4 mg/mouse) in 0.2 ml of saline. The mice were fed ad libitum and observed for one week under the same conditions as described in Example 1.

Molecule	mortality [1]	rate of potentiation of antibiotic efficacy ([2]; fasted state)	rate of potentiation of antibiotic efficacy ([2]; fed state)	potentiation of the antibiotic efficacy versus antibiotic treatment alone [3] [fold]	effect of the degree of iron-saturation on stability [4]	stability ([4]; room temperature)	mortality within 24 hours [5]	effect of the degree of iron-saturation on potentiation of beta-lactam antibiotics (pathogenic bacteria; 100%, 28% and 0% iron-saturated lactoferrin)	potentiating effect by timing of lactoferrin dosing (pathogenic bacteria; 12 hours before or six hours after the antibiotic administration)	potentiating effect by timing of lactoferrin dosing (pathogenic bacteria; from six hours before to one hour after the antibiotic administration)	potentiation of ampicillin efficacy in vivo (Escherichia coli #11)	potentiation of amoxicillin's efficacy [6]	potentiation of antibiotic efficacy ([7]; lactoferrin doses from 50 to 0.05 mg per mouse, cefpodoxime)	lactoferrin dose at which potentiation reaches a plateau ([7]; with cefpodoxime) [mg per mouse]	excretion in intact form in feces [8]	resistance to gastrointestinal digestion [8]	mortality within 24 hours [9]
lactoferrin: bovine lactoferrin, the native one derived from cheese whey with 28.5% iron-saturation (protein, UniProt P24627 20-708, looked up, 28.5% iron-saturated, bovine lactoferrin, the native one derived from cheese whey with 28.5% iron-saturation) Lactotransferrin: APRKNVRWCTISQPEWFKCRRWQWRMKKLGAPSITCVRRAFALECIRAIAEKKADAVTLDGGMVFEAGRDPYKLRPVAAEIYGTKESPQTHYYAVAVVKKGSNFQLDQLQGRKSCHTGLGRSAGWIIPMGILRPYLSWTESLEPLQGAVAKFFSASCVPCIDRQAYPNLCQLCKGEGENQCACSSREPYFGYSGAFKCLQDGAGDVAFVKETTVFENLPEKADRDQYELLCLNNSRAPVDAFKECHLAQVPSHAVVARSVDGKEDLIWKLLSKAQEKFGKNKSRSFQLFGSPPGQRDLLFKDSALGFLRIPSKVDSALYLGSRYLTTLKNLRETAEEVKARYTRVVWCAVGPEEQKKCQQWSQQSGQNVTCATASTTDDCIVLVLKGEADALNLDGGYIYTAGKCGLVPVLAENRKSSKHSSLDCVLRPTEGYLAVAVVKKANEGLTWNSLKDKKSCHTAVDRTAGWNIPMGLIVNQTGSCAFDEFFSQSCAPGADPKSRLCALCAGDDQGLDKCVPNSKEKYYGYTGAFRCLAEDVGDVAFVKNDTVWENTNGESTADWAKNLNREDFRLLCLDGTRKPVTEAQSCHLAVAPNHAVVSRSDRAAHVKQVLLHQQALFGKNGKNCPDKFCLFKSETKNLLFNDNTECLAKLGGRPTYEEYLGTEYVTAIANLKKCSTSPLLEACAFLTR	all mice in those groups died by one day post-injection; also recorded: died within 24 hours	five fold	three fold	2.8	not affected	very stable at room temperature	All the mice died within 24 hours	does not affect the potentiation	significant but less potent effect	the strongest	eight fold	significantly potentiated	significantly potentiated the antibiotic efficacy at the same magnitude regardless of the dose	0.05	considerable amounts are excreted in intact form in feces	highly resistant to gastrointestinal digestion	–
hololactoferrin: 100% ferric ion saturated lactoferrin (protein, UniProt P24627 20-708, looked up, 100% ferric iron saturated, 100% ferric ion saturated lactoferrin) Lactotransferrin: APRKNVRWCTISQPEWFKCRRWQWRMKKLGAPSITCVRRAFALECIRAIAEKKADAVTLDGGMVFEAGRDPYKLRPVAAEIYGTKESPQTHYYAVAVVKKGSNFQLDQLQGRKSCHTGLGRSAGWIIPMGILRPYLSWTESLEPLQGAVAKFFSASCVPCIDRQAYPNLCQLCKGEGENQCACSSREPYFGYSGAFKCLQDGAGDVAFVKETTVFENLPEKADRDQYELLCLNNSRAPVDAFKECHLAQVPSHAVVARSVDGKEDLIWKLLSKAQEKFGKNKSRSFQLFGSPPGQRDLLFKDSALGFLRIPSKVDSALYLGSRYLTTLKNLRETAEEVKARYTRVVWCAVGPEEQKKCQQWSQQSGQNVTCATASTTDDCIVLVLKGEADALNLDGGYIYTAGKCGLVPVLAENRKSSKHSSLDCVLRPTEGYLAVAVVKKANEGLTWNSLKDKKSCHTAVDRTAGWNIPMGLIVNQTGSCAFDEFFSQSCAPGADPKSRLCALCAGDDQGLDKCVPNSKEKYYGYTGAFRCLAEDVGDVAFVKNDTVWENTNGESTADWAKNLNREDFRLLCLDGTRKPVTEAQSCHLAVAPNHAVVSRSDRAAHVKQVLLHQQALFGKNGKNCPDKFCLFKSETKNLLFNDNTECLAKLGGRPTYEEYLGTEYVTAIANLKKCSTSPLLEACAFLTR	–	–	–	–	–	–	–	–	–	–	–	–	–	–	–	–	died within 24 hours
